The source of these data is PMC12212138.

Series [1] deals with T1, PARP4 BRCT-WGR-CAT WT (human) (UniProt Q9UKK3).
T1 sequence: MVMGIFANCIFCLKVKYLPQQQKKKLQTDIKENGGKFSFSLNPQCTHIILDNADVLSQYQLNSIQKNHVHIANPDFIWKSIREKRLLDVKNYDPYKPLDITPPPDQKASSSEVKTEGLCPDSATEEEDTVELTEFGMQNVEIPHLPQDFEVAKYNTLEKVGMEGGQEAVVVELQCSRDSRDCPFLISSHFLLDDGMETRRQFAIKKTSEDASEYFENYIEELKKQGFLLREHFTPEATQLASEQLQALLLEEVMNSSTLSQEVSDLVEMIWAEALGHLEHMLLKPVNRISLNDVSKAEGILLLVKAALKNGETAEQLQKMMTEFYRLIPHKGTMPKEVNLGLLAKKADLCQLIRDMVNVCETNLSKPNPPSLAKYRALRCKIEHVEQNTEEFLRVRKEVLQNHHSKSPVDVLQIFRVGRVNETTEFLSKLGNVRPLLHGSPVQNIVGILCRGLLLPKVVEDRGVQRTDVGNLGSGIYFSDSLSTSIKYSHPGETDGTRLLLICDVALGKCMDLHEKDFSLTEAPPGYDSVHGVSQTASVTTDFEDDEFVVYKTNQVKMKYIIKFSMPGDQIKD
The series can be described thus: EMSA. To be noted: FP: 50 mM Tris pH 7.5, 50 mM NaCl, 1 mM MgCl2, 0.05% NP40, 2 mM DTT, 5% glycerol, 25 ug/ml BSA, room temp 30 min; EMSA: 50 mM Tris pH 7.5, 50 mM NaCl, 4% …. For orientation: In EMSA bound probe runs differently from free probe, usually more slowly.

The target in the next series is T2, PARP4 WGR-CAT (human) (UniProt Q9UKK3).
T2 sequence: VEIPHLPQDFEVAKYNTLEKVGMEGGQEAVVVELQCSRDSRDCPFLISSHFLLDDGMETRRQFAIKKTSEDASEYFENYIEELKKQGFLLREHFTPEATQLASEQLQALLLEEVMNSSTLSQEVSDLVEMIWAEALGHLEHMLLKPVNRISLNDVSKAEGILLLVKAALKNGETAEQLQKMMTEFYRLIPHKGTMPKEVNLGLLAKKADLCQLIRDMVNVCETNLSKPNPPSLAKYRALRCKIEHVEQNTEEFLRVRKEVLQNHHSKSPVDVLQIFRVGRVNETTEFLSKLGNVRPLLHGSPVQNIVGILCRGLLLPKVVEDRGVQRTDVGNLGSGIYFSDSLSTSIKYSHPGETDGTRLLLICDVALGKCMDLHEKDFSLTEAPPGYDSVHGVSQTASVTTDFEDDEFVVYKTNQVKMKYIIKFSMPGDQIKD
The series is described as follows: FP. To be noted: FP: 50 mM Tris pH 7.5, 50 mM NaCl, 1 mM MgCl2, 0.05% NP40, 2 mM DTT, 5% glycerol, 25 ug/ml BSA, room temp 30 min; EMSA: 50 mM Tris pH 7.5, 50 mM NaCl, 4% ….

Broadly, the Kd is the concentration at which binding is half-saturated. A low value points to higher affinity.

On to CCGCGGGC / GCUCAGCGG [Probe 3], for which the Kd in series [1] turned out to be 11 µM.
The sequence CCGCGGGC / GCUCGCGG [Probe 4] had a Kd in series [1] of 7 µM.
Turning to “GGCUGGCUUUAGCUCAGCGGUUACUUCGCGUGUCAUCAAACCACCUCUCUGGGUUGUUCGAGACCCGCGGGCGCUCUCCAGCCCUCUU [vtRNA1-3]”, the Kd in the series with PARP4 WGR-CAT (human) came to 93 µM.
